Assay results taken from the nanobody polyreactivity screen of Harvey et al. (2022).

Assay: yeast display, Sf9 membrane polyspecificity reagent, FACS + sequencing; frameworks hold sequencing errors
In short: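 Using colony PCR, genes from sorted yeast display clones were amplified, then sequenced on MiSeq at 2 × 250 and filtered by CDR length. The clones had been stained with 10% biotinylated, detergent-solubilized Sf9 membrane reagent for 1 hour at 4 °C and sorted by FACS into low and high (top ~1%) gates on anti-HA and streptavidin fluorescence. Polyreactivity labels come from the gate of origin.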

Row | Sequence | polyreactivity (PSR sort gate)
1 | QVQLVESGGGLVQAGGSLRLSCAASGRIFYTNVMGWYRQATGKERELVAAISTGGGRTYYADSVKGRITISRDNAKNSVYLQMNSLKPEDTAVYDCAASGRYAIVWGDQYYGYYYWGQGTQVTVSS | high polyreactivity
2 | QVQLVESGGCLVQAGGSLRLSCAASGRTSTGYSMGWYRQAPGKERELVAGIDKIGGRTYYADSVKGRFTISRDNAKNTVYLQMNSLKPEDTAVYYCAVKTSPRRYYWGQGTQVTVSS | high polyreactivity
3 | QVQLVESGGGLVQAGGSLRLSCAASGSIFARYAMGWYRQAPGKERELVAAISSNSASTYYADSVKGRFTSSRDNAKNTVYLQMNSLKPEDTAVDYCATAYRSDWLNDYWGQGTQVTVSS | low polyreactivity
4 | QVQLVESGGGLVQAGGSLRLSCAASGRIFPDNTMGGYRQAPGKERELVAVITYSGGSTYYADSVKGRFTISRDNAKNTVYLKMNSLKPEDTAVYYCAARDYYIWFAEVYYWGQGTQVSVSS | low polyreactivity
5 | QVQLVESGGGLVQAGGSLRLSCAASGSIFWSNAMGWYRQAPGKESELVATIDDDVGSTYYADSVMGRFTISRDNAKNTVYLQMNSLKPEDTAVYYCAADSVYYVIPYEYWGQGTQVTVSS | low polyreactivity
6 | HAQQQESGGGLVQAGGSLRRSCAASGSIFRFSGRGWYRLAPGKERELVASIGFGSITYYADRVKGRFTISRDNANNTVYLQMNSLKPEDTAVYYCAVQVQDESWLDYWGQGTQVTVSC | low polyreactivity
7 | QVQLVESGGGLVQAGGSLRLSCAASGFTFLVYAMGWYRQAPGKERELVAAISRRGCSTYYADSVKGRFTISRDNAKNTVYLQMNSLKPEDTSVYYCNKYRQQGWEFDYWGQGTQVTVSS | high polyreactivity
8 | QVQLVESGGGLVQAGGSLRLSCAASGRTFRFYAMGWYRQAPGKERELVATIRSGASTYYADSVKGRFTISRDNAKNTVYLQMNSLKPEDTAVYYCAAGLYFPYVSVIVFRSYDYWGQGTQVTVSS | high polyreactivity
9 | QVQLVEAGGGLVQAGGSLRLSCAASGLIIAKYAMGWYRQAPGKERELVAGITSGGGTSYADSVKGRFTISRDNAKNTVYLQMNSLKPEDTAVNYCNAVVVGWFYQYDYWGQGTQVTVSS | low polyreactivity
10 | QVQLVESGGGLVQAGGSLRLSCAASGSIFRGYAMGWYRQAPGKEREFVASITWSAGRTRYADSVKGRFTISRDNAKNTVYLQMNSLKPEDTAVYYCAADHGSYWPRYDYWGQGTQVTVSS | high polyreactivity
11 | QVHLVESGGGLVQAGGSLRLSCAASGSTFAKYAMGWYRQAPRKERELDASIRLSGGSTYYADSVKGRFTISRDNAKTTVYLLMNSQKPEDTAVYYCNKQFATFYYGFDYYYWGQGTQVTVSS | low polyreactivity
12 | QVQLVESGGGLVQAGGSLRLSCAASGRIFGYYVMGWYRPAPGKERELVAAIRSSADSTYYADSVKGRFTISRDNAKNTVYLQMNSLKPEDTAVYDCAAQSPAYYTKSYWGQGTQVTVSS | low polyreactivity
13 | QVQLVESGGGLVQAGGSLRLSCAASGSIFVYNAMGWYRQATGKEREMVAVINKSGDTTYYADSVKGRFTISRDNAKNTVYLQMNSLKPEDTAVYYCNASGEVLAAVVSYDYWGQGTQVTVSS | low polyreactivity
14 | QVQLVESGGGLVQAGGSLRLSCAASGRIFLSNALGWYSQAPGKERELVAALSWTGGSTYYADSVTGRFTISRDNAKNTVYLQMNSLKPEDTAVYYCAASTVGQTYSYYVDTYDYWGQGTQVTVSS | low polyreactivity
15 | QVQLVESGGGLVQAGGSLRISWAASGSTFGYYAMGWYRQAPGKDREWVAAISLGGGSTYYADSVKGRFTISRDNAKNTVYLQMNSLKPDDTAVYYCAARPYVRVKWKFNYWGQGTQVTVSS | low polyreactivity
16 | QVQLVESGGGLVQAGGSLRLSCAASGGTFGQYAMGWYRLAPGKERELVAAITSSGGRTYYADSVKGRFTISRDNAKNTVYLQMNSLKPEDTAVYYCAADVQSRYVGEGDYWGQGTQVTVSS | high polyreactivity

Row | Sequence | polyreactivity (PSR sort gate)
17 | QVQLVESGGGLVQAGGSLRLSCAASGFILAGYAMGWYRQAPGKERELVAAINSRGTRTYYADSVKGRFTISRDNAKNTVYLQMNSLKPEDTAVYYCAVHVWGTYGSWEYYYWGQGTQVTVSS | high polyreactivity
18 | QVQLVESGGGLVQAGGSLRLSCAASGFTFITNAMGWYRQAPGKERELVASISIGGSTNYADSVKGRFTISRDNAKNTVYLQMNSLKPEDTAVYYCAARVYRRLFLPGRYGRPLGYWGQGTQVTVSS | high polyreactivity
19 | QVQLVESGGGLVQAGGSLRLSSAASGFIFGAYAMGWYRQAPGKERELVAANSSRGGNTYYADSVKGRFTISRDNAKNTVYLQMNSLKPEDPAVYDCNAVGYAPYLYVPPPYEYWGQGTQVTVSS | high polyreactivity
20 | QVQLVESGGGLFKAGGSLRLSCAASGSIFRYYTMGWYRQAPGKERELVAAINGSGGSTYYADSVKGRFTISRDNAKNTVYLQMNSLKPEDTAVYYCNRVTKEYGLRQYYYWGQGTQVTVSS | low polyreactivity
21 | QVQLVESGGGLVQAVGSLRLSCAASGSTFPYYTMGWYRQAPGKERELVAAITASGGSTYYADSVKGRVTISRDNAKNTVYLQMNSLKPEDTAVYYCAATCLNHVRKSRGYDYWGQGTQVTVSS | high polyreactivity
22 | QVHLVESGGGLVQAGGSLRLTCSASGFTFSTYAMGWYRPAPGKESEMVAVISWNGGSTYYADTVKGRFTISRYNAKNTVYLQMNSLKTEDTAVYYCAARGSFKKGYWGQGTQVTVSS | high polyreactivity
23 | QVQLVESGGGLVQAGGSLRLSCAASGRTFIRYCMGWYRQAPGKERELVAAITSRGGRTYYADSVKGRFTISRDNAKNTVYLQMNSLIREDTAVYYCAADTTWYSRYRHLWYRYYYWGQGTQVTVSS | high polyreactivity
24 | QVQLVESGGGLVQAGGSLRLSCASSGRIFRSYAMGWYRQAPGKERELVAAISSGGGSTYYADSVKGRFTISRDNAKNTVYLQMNSLKPEDTAVYYCNTDFYYDDVSQAHDYWGQGTQVTVSS | high polyreactivity
25 | QVQLVESGGCLVQAGGSLRLSCAASGGIFSYNAMGWYRQAPGKERELVAAISYSGGNTYYADSVKGRFTISRDNAKNTVYLQMNSLKPEDTAVYYCAATGYYNWYTSGYWGQGTQVTVSS | high polyreactivity
26 | QVQLVESGGGVDQAGGSLRLSCAASGSTFHLYAMGCYRQAPGKERESVAAIRGRGGNTYADSVKGRFTISRDNAYNTVYLQMNSLKPEDTAVYYCAAPLLRDLRSPYSYNYWVQGTQVTVSS | low polyreactivity
27 | QVQIVESGGGLVQAGGSLRLSCAASGSTFQYYAMGWYRQAPGKERELVAGITWRDGNTYYADSVKGRFTISRDNAKNSVYLQMNSLKPEDTAVYYCAARRYFVIYFPYDYWGQGTQVTVSS | low polyreactivity
28 | QFQLVESGGGLVQAGVSLRLSCAASGSIILVYAMGLYIQATGKETELVPAITTRGSSTYYADSVKGRFKISRDNAKNTYYLQMNSLKPEDTEVYYCAKEFPGTQGRGVTGFSGTALGYWGQGTKVTVSS | low polyreactivity
29 | QVQLVESGGGLVQAGGSLRLSCAASGITFFGYALGWYRQAPGKERELVADITTSDSTYYADSVKGRFTISRDNAKNTVYLQMNSLKPEDTAVYYCNADYYDGGYGPGVEEYDYWGQGTQVTVSS | low polyreactivity
30 | QVQLVESGGGLVQAGGSLRLSCAACGRTFRFYAMGWYRKAPGKERELVAAISKSGGSTYYADSVKGRFTISRDNEKNTVYLQMNSLKPEDTAVYYCAAQTYLYDYKYWGQGTQVTVSS | high polyreactivity
31 | QVQLVESGGGLVQAGGSLRLSCAASGSIFGYYTMGWYRQAPGKEREFVAAISWSGGSTYYADSVKGRFTISRDNAKNTVYLQMTSLKPEDTAVYYCNADVYWEYDYWGQGTQVTVSS | low polyreactivity
